Experimental data from US20080050763A1 (INSTITUT PASTEUR, published 2008).

Molecular target: T1, IKKβ, endogenous, in Rat-1 and 5R cell extracts (rat (from the cell line Rat-1; not …, UniProt Q9QY78 1-757)
T1 construct: Endogenous protein of a cell extract; also called IKK-beta
T1 sequence (looked up): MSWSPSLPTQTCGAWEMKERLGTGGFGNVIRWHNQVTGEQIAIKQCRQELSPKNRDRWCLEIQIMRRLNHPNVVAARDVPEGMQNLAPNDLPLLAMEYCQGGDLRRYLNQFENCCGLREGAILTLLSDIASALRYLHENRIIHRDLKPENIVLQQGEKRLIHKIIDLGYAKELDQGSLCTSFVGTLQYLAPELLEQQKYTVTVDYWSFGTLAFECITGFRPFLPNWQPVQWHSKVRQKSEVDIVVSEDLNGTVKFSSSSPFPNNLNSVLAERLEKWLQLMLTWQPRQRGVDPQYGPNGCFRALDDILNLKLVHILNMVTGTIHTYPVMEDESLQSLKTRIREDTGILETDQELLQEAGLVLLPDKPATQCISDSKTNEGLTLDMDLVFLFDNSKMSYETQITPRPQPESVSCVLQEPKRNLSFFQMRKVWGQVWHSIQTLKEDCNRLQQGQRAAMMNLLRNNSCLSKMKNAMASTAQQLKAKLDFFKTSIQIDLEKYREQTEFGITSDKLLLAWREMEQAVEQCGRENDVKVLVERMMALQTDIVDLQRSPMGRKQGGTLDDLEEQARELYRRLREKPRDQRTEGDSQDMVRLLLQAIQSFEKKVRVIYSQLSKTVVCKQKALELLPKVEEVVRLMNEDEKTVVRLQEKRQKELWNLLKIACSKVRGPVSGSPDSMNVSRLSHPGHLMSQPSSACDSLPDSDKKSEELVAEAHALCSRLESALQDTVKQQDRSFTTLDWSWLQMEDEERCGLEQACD
Experiment: glycerol gradient ultracentrifugation of cell extracts, co-migration
Experimental: Fractions (160 μl) were collected using the Piston Gradient Fractionator (Biocomp, Serlabo) and their absorbance at 280 nm was measured. To calibrate the gradient, standard proteins were applied to glycerol gradient and in parallel. The reproducibility of each glycerol gradient was also checked by measuring in each fraction the enzymatic activity of an endogenous marker, NDP kinase (110 kDa).

binding result: binds
B1: NEMO (NF-κB essential modulator), endogenous, in Rat-1 cell extracts (other, UniProt Q6TMG5 1-412, looked up)
chain: MSRHLWKNQLSEMVQPSGGPAEDQDMLGEESSLGKPAMLHLPSEQGTPETLQRCLEENQELRDAIRQSNQMLRERCEELLHFQVSQREEKEFLMCKFQEARKLVERLSLEKLDLRRQREQALEDLEHLKKCQQQMAEDKASVKAQVTSLLGELQESQSRLEAATKERQTLEGRIRAVSEQVRQLESEREVLQQQHSVQVDQLRMQNQSVEAALRMERQAASEEKRKLAQLQAAYHQLFQDYDSHIKSSKGMQLEDLRQQLQQAEEALVAKQELIDKLKEEAEQHKIVMETVPVLKAQADIYKADFQAERHAREKLVERKELLQEQLEQLQREFNKLKVGCHESARIEDMRKRHVETSQPPLLPAPAHHSFHLALSNQRRSPPEEPPDFCCPKCQYQAPDMDTLQIHVMECIE
notes: Endogenous protein of a cell extract; also called IKK gamma
